These results are taken from PMC9019507, “OAT10/SLC22A13 Acts as a Renal Urate Re-Absorber: Clinico-Genetic and Functional Analyses With Pharmacological Impacts” (Frontiers in Pharmacology, 2022).

What is called Km is the substrate concentration at which the rate is half of its maximum.

The series relates to T1, O=c1[nH]c(=O)c2[nH]c(=O)[nH]c2[nH]1.
T1 construct: full-length human OAT10 wild-type, EGFP-fused (pEGFP-N1)
In words: cells, lysate or membranes. The series is classed as cell-based, Homo sapiens. Particulars: Cl^-.

OAT10/SLC22A13 (Homo sapiens), sequence (chain, as listed by the source): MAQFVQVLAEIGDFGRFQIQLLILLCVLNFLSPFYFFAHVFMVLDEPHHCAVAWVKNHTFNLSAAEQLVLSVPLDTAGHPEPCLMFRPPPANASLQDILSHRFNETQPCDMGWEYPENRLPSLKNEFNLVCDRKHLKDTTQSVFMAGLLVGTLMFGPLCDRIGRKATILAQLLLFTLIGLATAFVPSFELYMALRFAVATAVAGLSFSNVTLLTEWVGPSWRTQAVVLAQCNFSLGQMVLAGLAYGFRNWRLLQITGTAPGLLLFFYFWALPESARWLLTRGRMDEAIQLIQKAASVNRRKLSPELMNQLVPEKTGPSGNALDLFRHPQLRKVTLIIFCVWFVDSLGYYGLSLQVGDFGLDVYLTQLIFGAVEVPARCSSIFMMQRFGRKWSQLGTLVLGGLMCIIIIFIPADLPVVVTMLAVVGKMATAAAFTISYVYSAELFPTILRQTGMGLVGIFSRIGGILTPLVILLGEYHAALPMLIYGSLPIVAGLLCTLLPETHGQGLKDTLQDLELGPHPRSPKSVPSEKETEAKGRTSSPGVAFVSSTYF

For the substance OAT10/SLC22A13 (Homo sapiens), the Michaelis-Menten constant (Km) came to 558 µM.
